Reference: PMC3549669 (Science signaling, 2012)

T1: GST-TBK1 (human, UniProt Q9UHD2 1-729)
T1 sequence (looked up): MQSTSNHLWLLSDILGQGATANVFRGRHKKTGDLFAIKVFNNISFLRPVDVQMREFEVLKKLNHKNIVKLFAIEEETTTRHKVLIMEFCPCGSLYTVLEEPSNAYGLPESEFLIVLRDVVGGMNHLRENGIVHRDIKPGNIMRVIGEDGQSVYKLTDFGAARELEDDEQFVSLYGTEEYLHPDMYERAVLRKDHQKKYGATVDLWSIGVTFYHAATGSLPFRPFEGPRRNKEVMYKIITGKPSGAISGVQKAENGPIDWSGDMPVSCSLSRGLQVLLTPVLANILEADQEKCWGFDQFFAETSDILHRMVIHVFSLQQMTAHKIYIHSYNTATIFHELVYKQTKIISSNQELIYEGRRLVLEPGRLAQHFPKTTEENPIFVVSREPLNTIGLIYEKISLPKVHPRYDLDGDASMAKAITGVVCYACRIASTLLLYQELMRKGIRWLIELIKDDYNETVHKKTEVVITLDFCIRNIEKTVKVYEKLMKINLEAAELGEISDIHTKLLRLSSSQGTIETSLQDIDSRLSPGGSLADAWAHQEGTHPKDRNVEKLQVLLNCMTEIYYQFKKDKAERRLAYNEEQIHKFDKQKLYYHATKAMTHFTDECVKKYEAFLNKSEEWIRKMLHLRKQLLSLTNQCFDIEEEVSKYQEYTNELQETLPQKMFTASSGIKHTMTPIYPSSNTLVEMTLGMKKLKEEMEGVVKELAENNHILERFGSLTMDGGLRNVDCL

T2: Flag-TBK1 (human, UniProt Q9UHD2 1-729)
T2 sequence (looked up): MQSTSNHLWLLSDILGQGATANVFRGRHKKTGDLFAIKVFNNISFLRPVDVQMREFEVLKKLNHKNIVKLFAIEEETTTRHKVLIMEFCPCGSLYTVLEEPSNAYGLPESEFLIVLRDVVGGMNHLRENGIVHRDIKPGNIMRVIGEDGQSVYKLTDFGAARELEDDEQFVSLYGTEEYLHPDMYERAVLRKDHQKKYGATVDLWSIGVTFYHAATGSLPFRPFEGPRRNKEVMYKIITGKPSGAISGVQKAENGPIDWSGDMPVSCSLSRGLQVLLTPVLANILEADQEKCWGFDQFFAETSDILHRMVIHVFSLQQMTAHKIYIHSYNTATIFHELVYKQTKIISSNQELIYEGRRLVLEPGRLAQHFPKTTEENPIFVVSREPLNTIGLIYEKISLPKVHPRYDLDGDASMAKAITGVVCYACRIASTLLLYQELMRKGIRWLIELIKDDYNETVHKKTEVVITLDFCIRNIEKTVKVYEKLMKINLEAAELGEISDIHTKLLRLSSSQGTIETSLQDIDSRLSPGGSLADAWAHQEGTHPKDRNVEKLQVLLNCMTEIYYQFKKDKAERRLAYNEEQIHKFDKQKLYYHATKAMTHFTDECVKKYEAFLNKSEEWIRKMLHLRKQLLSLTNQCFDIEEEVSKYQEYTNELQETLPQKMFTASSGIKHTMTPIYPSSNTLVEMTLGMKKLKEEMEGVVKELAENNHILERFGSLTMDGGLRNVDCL


Experiments:
GST-TBK1 = target: T1, GST-TBK1; experiment: pull-down
SEC = target: the molecule itself; experiment: SEC
Flag-TBK1 = target: T2, Flag-TBK1; experiment: pull-down

Binder | binding result (GST-TBK1) | binding result (Flag-TBK1) | binding result (SEC)
VTVGSLKTSAVPSTSTMSQEPELLISGMEKPLPLRTDFS (domain or fragment, human, UniProt Q86WV6 341-379, looked up) [His6-STING (341–379)] | binds |  | binds
VTVGSLKTSAVPSTSTMSQEPELLIAGMEKPLPLRTDFS (domain or fragment, human, UniProt Q86WV6 341-379, looked up) [GST-STING (341–379) S366A] |  | binds | 
VTVGSLKTSAVPSTSTMSQEPELLIAGMEKPLPLRTDFS (domain or fragment, human, UniProt Q86WV6 341-379, looked up) [His6-STING (341–379) S366A] |  |  | binds
VTVGSLKTSAVPSTSTMSQEPELLISGMEKPLPARTDFS (domain or fragment, human, UniProt Q86WV6 341-379, looked up) [His6-STING (341–379) L374A] |  |  | binds

Second part, led by results:

binding result (GST-TBK1) | binding result (Flag-TBK1) | Binder | binding result (SEC)
 | binds | VTVGSLKTSAVPSTSTMSQEPELLISGMEKPLPARTDFS (domain or fragment, human, UniProt Q86WV6 341-379, looked up) [GST-STING (341–379) L374A] | 
 | binds | VTVGSLKTSAVPSTSTMAQEPELLISGMEKPLPLRTDFS (domain or fragment, human, UniProt Q86WV6 341-379, looked up) [GST-STING (341–379) S358A] | 
 | binds | VTVGSLKTSAVPSTSTMSQEPELLISGMEKPLPLRTDFS (domain or fragment, human, UniProt Q86WV6 341-379, looked up) [GST-STING (341–379)] | 
